Measurements: patent US20250262210A1 (TRUSTEES OF COLUMBIA UNIVERSITY IN THE CITY OF NEW YORK, published 2025)
Residue numbers refer to the chain shown, from its start. Numbers in names are those of the source.

T1: POLR3A (human, UniProt O14802 1-1390)
T1 sequence (looked up): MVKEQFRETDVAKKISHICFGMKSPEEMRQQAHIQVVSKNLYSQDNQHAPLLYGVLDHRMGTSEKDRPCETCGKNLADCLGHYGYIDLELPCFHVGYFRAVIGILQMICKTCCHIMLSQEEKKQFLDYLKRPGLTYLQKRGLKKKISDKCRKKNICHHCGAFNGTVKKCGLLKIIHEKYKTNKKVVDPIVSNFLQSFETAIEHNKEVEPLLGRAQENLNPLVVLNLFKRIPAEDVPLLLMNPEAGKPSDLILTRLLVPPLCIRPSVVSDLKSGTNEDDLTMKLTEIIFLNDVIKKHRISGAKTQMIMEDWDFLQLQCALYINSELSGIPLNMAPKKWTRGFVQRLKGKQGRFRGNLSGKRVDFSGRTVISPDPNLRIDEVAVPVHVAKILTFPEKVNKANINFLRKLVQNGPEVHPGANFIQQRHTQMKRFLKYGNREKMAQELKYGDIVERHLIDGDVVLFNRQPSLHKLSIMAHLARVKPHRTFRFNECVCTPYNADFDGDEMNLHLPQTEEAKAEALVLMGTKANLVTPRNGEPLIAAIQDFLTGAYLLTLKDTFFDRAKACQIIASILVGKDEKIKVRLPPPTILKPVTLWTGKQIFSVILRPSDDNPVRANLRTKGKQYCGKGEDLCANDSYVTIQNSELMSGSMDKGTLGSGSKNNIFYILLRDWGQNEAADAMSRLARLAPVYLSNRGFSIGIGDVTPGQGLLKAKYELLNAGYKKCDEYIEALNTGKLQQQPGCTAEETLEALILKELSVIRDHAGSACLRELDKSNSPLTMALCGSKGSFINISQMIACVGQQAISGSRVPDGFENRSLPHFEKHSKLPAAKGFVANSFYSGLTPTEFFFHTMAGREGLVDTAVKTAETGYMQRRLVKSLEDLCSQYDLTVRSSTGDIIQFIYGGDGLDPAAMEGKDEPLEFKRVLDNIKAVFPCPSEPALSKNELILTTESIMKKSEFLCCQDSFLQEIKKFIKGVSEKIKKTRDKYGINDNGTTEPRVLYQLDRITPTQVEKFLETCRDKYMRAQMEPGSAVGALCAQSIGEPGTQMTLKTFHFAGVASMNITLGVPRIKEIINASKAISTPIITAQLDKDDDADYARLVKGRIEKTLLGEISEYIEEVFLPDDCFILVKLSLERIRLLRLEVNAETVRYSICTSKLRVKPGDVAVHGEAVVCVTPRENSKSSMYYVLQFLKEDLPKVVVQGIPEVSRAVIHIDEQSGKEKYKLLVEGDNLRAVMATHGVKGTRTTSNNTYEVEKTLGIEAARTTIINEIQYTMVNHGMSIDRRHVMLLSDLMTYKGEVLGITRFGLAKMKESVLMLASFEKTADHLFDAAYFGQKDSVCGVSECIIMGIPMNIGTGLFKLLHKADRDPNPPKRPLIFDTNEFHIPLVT

B1: LZTR1-FLAG (other, human, UniProt Q8N653 1-840, looked up)
chain: MAGPGSTGGQIGAAALAGGARSKVAPSVDFDHSCSDSVEYLTLNFGPFETVHRWRRLPPCDEFVGARRSKHTVVAYKDAIYVFGGDNGKTMLNDLLRFDVKDCSWCRAFTTGTPPAPRYHHSAVVYGSSMFVFGGYTGDIYSNSNLKNKNDLFEYKFATGQWTEWKIEGRLPVARSAHGATVYSDKLWIFAGYDGNARLNDMWTIGLQDRELTCWEEVAQSGEIPPSCCNFPVAVCRDKMFVFSGQSGAKITNNLFQFEFKDKTWTRIPTEHLLRGSPPPPQRRYGHTMVAFDRHLYVFGGAADNTLPNELHCYDVDFQTWEVVQPSSDSEVGGAEVPERACASEEVPTLTYEERVGFKKSRDVFGLDFGTTSAKQPTQPASELPSGRLFHAAAVISDAMYIFGGTVDNNIRSGEMYRFQFSCYPKCTLHEDYGRLWESRQFCDVEFVLGEKEECVQGHVAIVTARSRWLRRKITQARERLAQKLEQEAAPVPREAPGVAAGGARPPLLHVAIREAEARPFEVLMQFLYTDKIKYPRKGHVEDVLLIMDVYKLALSFQLCRLEQLCRQYIEASVDLQNVLVVCESAARLQLSQLKEHCLNFVVKESHFNQVIMMKEFERLSSPLIVEIVRRKQQPPPRTPLDQPVDIGTSLIQDMKAYLEGAGAEFCDITLLLDGHPRPAHKAILAARSSYFEAMFRSFMPEDGQVNISIGEMVPSRQAFESMLRYIYYGEVNMPPEDSLYLFAAPYYYGFYNNRLQAYCKQNLEMNVTVQNVLQILEAADKTQALDMKRHCLHIIVHQFTKVSKLPTLRSLSQQLLLDIIDSLASHISDKQCAELGADI
notes: Expressed in HEK 293T, HeLa or U87 cells; used as cell lysate; also called LZTR1 wild type-FLAG; LZTR1 WT; not shown: FLAG tag at the C-terminus
B2: LZTR1 R810W-FLAG (other, human, UniProt Q8N653 1-840, looked up)
chain: B1 chain with R810W
notes: Stably expressed in U87 cells by lentivirus; also called LZTR1-FLAG-R810W; LZTR1 RW; not shown: FLAG tag

Columns and labels:
[1] = target: KIF1B (human, UniProt O60333 2-1816, limits assumed); assay: IP/MS, LZTR1 wild type-FLAG, U87
Method in brief: (§1)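 Extracted peptides in 3% acetonitrile/0.1% formic acid ran on a 50 cm C18 column into an Orbitrap Fusion, with MaxQuant identification and spectral counting.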

[2] = target: T1, POLR3A; assay: IP/MS, LZTR1 R810W-FLAG, U87
Method in brief: as §1

[3] = target: BRCA2 (human, UniProt P51587 1-3418); assay: IP/MS, LZTR1 R810W-FLAG, U87
Method in brief: as §1

Sequence of KIF1B (O60333 2-1816 limits assumed): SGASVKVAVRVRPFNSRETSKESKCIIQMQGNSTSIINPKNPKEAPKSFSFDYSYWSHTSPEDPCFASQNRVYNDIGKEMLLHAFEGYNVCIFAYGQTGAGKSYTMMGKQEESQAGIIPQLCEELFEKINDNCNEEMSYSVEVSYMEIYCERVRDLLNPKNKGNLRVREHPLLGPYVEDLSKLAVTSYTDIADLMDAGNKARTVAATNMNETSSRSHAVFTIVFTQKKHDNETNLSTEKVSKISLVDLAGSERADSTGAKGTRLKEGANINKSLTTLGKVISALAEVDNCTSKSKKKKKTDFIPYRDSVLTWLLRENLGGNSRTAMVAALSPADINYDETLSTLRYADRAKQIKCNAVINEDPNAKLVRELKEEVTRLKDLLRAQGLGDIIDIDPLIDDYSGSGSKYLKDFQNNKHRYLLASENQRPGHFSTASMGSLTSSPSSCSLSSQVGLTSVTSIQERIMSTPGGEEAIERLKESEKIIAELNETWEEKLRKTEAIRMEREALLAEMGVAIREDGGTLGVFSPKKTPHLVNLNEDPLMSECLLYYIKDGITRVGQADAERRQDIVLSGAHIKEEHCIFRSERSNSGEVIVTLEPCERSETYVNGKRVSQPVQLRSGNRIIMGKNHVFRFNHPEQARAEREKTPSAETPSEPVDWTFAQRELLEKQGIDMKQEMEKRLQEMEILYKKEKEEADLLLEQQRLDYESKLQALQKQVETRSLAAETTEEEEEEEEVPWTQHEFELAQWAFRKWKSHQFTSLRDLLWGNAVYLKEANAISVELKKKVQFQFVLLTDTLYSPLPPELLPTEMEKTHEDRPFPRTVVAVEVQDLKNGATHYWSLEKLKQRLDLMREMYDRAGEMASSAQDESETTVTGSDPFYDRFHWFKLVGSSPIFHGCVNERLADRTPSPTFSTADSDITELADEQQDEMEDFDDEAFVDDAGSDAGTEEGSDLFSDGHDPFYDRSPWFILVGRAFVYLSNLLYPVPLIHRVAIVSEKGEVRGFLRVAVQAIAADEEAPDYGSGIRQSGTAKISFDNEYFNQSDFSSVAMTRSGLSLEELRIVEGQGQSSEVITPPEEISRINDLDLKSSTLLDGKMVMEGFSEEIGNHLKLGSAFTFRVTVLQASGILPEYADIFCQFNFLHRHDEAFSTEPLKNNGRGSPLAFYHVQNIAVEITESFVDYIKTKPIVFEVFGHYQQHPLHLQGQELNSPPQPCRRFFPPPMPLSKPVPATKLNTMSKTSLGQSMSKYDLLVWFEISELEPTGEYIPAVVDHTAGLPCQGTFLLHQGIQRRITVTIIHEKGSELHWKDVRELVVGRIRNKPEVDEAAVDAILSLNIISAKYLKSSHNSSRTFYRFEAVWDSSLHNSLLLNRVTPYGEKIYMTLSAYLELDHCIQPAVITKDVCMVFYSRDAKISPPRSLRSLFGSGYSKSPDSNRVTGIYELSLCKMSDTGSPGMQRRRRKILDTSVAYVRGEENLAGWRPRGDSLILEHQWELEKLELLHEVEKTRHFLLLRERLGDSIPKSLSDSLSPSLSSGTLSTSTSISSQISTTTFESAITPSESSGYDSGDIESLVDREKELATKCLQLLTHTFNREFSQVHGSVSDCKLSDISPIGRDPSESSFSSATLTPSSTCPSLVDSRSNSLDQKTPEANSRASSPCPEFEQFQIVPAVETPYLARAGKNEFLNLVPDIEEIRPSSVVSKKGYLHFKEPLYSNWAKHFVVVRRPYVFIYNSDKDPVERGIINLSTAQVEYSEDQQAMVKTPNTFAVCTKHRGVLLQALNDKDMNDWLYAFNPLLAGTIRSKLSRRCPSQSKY

| Binder | binding result [1] | binding result [2] | binding result [3] |
| --- | --- | --- | --- |
| B1 | binds | – | – |
| B2 | – | binds | binds |
